According to EP4775675A1:

Experiments:
[1] = target: cynomolgus monkey BDCA-2 on cells (Jurkat-cynoBDCA-2 cells; cynomolgus monkey pDCs) (cynomolgus monkey); assay: flow cytometry on Jurkat-cynoBDCA-2 cells
[2] = target: human BDCA-2 on cells (Jurkat-hBDCA-2 cells; human pDCs; human PBMCs) (human) (UniProt Q8WTT0); assay: flow cytometry on Jurkat-hBDCA-2 cells
human BDCA-2 on cells (Jurkat-hBDCA-2 cells; human pDCs; human PBMCs) (human), sequence (Q8WTT0 whole entry): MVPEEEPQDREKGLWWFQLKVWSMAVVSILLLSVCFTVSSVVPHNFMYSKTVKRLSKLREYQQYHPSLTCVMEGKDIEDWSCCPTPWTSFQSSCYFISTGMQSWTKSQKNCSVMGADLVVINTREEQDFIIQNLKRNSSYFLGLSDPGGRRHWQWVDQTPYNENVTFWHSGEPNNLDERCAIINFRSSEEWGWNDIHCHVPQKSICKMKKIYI

cynomolgus monkey BDCA-2 on cells (Jurkat-cynoBDCA-2 cells; cynomolgus monkey pDCs) (cynomolgus monkey), sequence (chain, as listed by the source): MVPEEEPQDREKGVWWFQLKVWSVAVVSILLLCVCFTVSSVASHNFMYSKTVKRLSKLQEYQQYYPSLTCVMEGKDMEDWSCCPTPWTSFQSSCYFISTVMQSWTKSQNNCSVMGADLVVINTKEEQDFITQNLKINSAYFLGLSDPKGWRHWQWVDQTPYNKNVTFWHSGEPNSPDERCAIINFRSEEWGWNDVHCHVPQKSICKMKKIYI

MFI [1]: 67.3
MFI [2]: 17.5
Substance: Isotype control (antibody)
